Where “and” joins values, the source holds several entries; their conditions need not be identical. Identical values can stand only once. Bounds are passed on as bounds.

The target of experiment [1] is chloride intracellular channel 1 construct CLIC1C24 (UniProt O00299). The experiment in a line: FRET or BRET.
Experiment [2] shares this target. The experiment in a line: two-colour single-molecule TIRF colocalisation with photobleaching step counting.

In the case of “human αB-crystallin mutant αBc_(C176), fluorescently labelled (natural protein)”, the initial FRET efficiency (E) of the complexes in experiment [1] fell in the range of 0.8 to 1. Further, in experiment [2], the proportion of CLIC1C24 colocalised with αBc (C176) (maximum, after 4 hr) amounted to 50%; the αBc subunits per complex (0.25 – 0.5 hr) is 1 subunits and 3 subunits; the αBc subunits per complex (complexes whose abundance increased after 1 hr) is > 6 subunits; the αBc subunits per complex (more complexes at molar ratio 2:1 to 4:1) was > 10 subunits. The stoichiometry N in experiment [2] (scale: αBc per CLIC1) worked out at 1.

By stoichiometry N is commonly meant the number of molecules, sites or subunits per partner or assembly.

For the origin of these results see publication doi:10.1101/2020.02.16.951632.
